In patent US20120129768A1 (JIANGSU HANSOH PHARMACEUTICAL GROUP, published 2012):
Starred links: 1 amine or outer side, 2 acyl side, 3 side chain; linkers in the order of their positions; H or OH if unused. Non-standard residues stand in square brackets, D forms with d. No end group written: not given here. *: point of attachment. εLys = N[C@@H](CCCCN[*:1])C(=O)[*:2]; Palmitoyl = CCCCCCCCCCCCCCCC(=O)*; Aib = CC(C)(N)C(=O)O

Target: Glucagon-like peptide-1 receptor (GLP1R)
Test: cell-based or functional assay

Binder	EC50 (nM), cAMP-response-element luciferase reporter in HEK293 cells with GLP1R	Maximum reaction rate (%)
HAEGTFTSDVSSYLEGQAAEFIVWLVKGRGKKGGPPPS[εLys](Palmitoyl) (not fully specified) [HS-20005]	0.000236 nM	89.1%
H[Aib]EGTFTSDVSSYLEEEAAKEFIAWLVRGGPSSGAPPPSK (not fully specified (residue 40); ends and bridges not checked) [HS-20004]	0.000373 nM	90.8%
HAEGTFTSDVSSYLEEQAAEFIVWLVKGRGKKGGPPPS[εLys](Palmitoyl) (not fully specified) [HS-20007]	0.000549 nM	87%
